Laboratory results from patent US20210292393A1 (published 2021).
Where a chain is given by its changes, count along the chain named.

B1: anti-SARS-CoV-2 antibody 497 (antibody, V domains shown)
VH: QVQLQESGPGLVKPSQTLSLTCTVSGGSINSFGYYWSWIRQHPGKGLEWIGYIYYSGSTDYNPSLNSRVTISLDTSKNQFLLKLTSVTAADTAVYYCAKLTDYYDSSGYSFDYWGQGTLVTVSS
VL: DIQMTQSPSSVSASVGDRVTITCRASQDISRWLAWYQQKPGKAPKLLIYAASSLQSGVPSRFSGRGSGTELTLTISSLQPEDFATYFCQQAYSFPFTFGGGTKVEIK
B2: antibody 423 (antibody, V domains shown)
VH: EVQLVESGGGLIQPGGSLRISCAASGFTVRNNHMSWVRQAPGKGLEWVSVFYRGGTTYYADSVKGRFTISRDDSKNTVDLQMNSLRGEDTAVYYCARGLSVAASGYFDCWGQGTLVTVSS
VL: DIQMTQSPSSVSASVGDTVTITCRANQGISSWLAWYQQVPGKAPELLIYATSTLQSGVPSRFSGSGSGTDFTLTISSLQPEDFATYYCQQANSFPFTFGPGTKVDIK
B3: antibody 420 (antibody, V domains shown)
VH: QVQLVESGGGVVQPGRSLRLSCAASGFTFSSYGMHWVRQAPGKGLEWVAVIWYDGSNKYYADSVKGRFTISRDNSKNTLYLQMNSLRAEDTAVYYCAKDGGDYGDVNFDYWGQGTLVTVSS
VL: SYELTQPPSVSVSPGQTARITCSGDALPKQYAYWYQQKPGQAPVLVIYKDSERPSGIPERFSGSSSGTTVTLTISGVQAEDEADYYCQSAGSSGNYKVFGGGTKLTVL
B4: antibody 385 (antibody, V domains shown)
VH: QVQLVESGGGVVQPGRSLRLSCAASGFTFSSYAIHWVRQAPGKGLEWVAVISYDGSNKYYADSVKGRFTISRDNSKNTLYLQMNSLRAEDTAVYYCARPRSGSYWGAFDIWGQGTMVTVSS
VL: QSVLTQPPSVSGAPGQRVTISCTGSSSNIGARYDVHWYQQLPGTAPKLLIYGNSNRPSGVPDRFSGSKSGTSASLAITGLQAEDEADYYCQSYDSSLRGVFGGGTKLTVL
B5: antibody 422 (antibody, V domains shown)
VH: QVQLVQSGSELKKPGASVKVSCKASGYTFTSYAMNWVRQAPGQGLEWMGWINTNTGNPTYAQGFTGRFVFSLDTSVSTTYLQISSLKAEDTAVYYCARVIGVVTYYYYGMDVWGQGTTVTVSS
VL: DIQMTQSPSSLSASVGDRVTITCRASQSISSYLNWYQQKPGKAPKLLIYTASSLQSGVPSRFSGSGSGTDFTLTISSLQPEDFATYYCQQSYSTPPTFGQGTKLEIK
B6: antibody 395 (antibody, V domains shown)
VH: QVQLVQSGSELKKPGASVKLSCQASGYTFSNHAMNWVRQAPGQGLEWMGWINTNTGNPTYAQGFTGRFVFSLDTSVGTAYLHISSLKAEDTAFYYCARASARPGVATNLDFWGQGTLVVVSS
VL: DIQMTQSPSSLSASVGDRVTITCRTSQNIDNYLNWYQQKPGKAPNLLIYAASRLHSGVPSRFSGSGSGTDFTLIISSLQPEDLATYYCQQSYSNPLTFGPGTKVDIR
B7: antibody 409 (antibody, V domains shown)
VH: QVTLRESGPALVKPTQTLTLTCTFSGFSLSTSGMCVSWIRQPPGKALEWLALIDWDDDKYYSTSLKTRLTISKDTSKNQVVLTMTNMDPVDTATYYCARTTYYYVSGRRAEFDPWGQGTLVTVSS
VL: NFMLTQPHSVSESPGKTVTISCTGSSGSIASNYVQWYQQRPGSAPTTVIYEDNQRPSGVPDRFSGSIDSSSNSASLTISGLKTEDEADYYCQSYDSSNQGVFGGGTKLTVL
B8: antibody 405 (antibody, V domains shown)
VH: not shown
VL: QSALTQPRSVSGSPGQSVTISCTGTSSDVGGYNYVSWYQQHPGKAPKLMIYDVSKRPSGVPDRFSGSKSGNTASLTISGLQAEDEADYYCCSYAGSYNVVFGGGTKLTVL
B9: antibody 431 (antibody, V domains shown)
VH: QVQLVESGGGVVQPGRSLRLSCAASGFTFSSYAMHWVRQAPGKGLEWLAVISYDGSNKYYADSVKGRFTISRDNSKNTLYLQMNSLRAEDTAVYYCARSFRGGYYYGMDVWGQGTTVTVSS
VL: DIQLTQSPSFLSASVGDRVTITCRASQGISSYLAWYQQKPGKAPKLLIYAASTLQSGVPSRFSGSGSGTEFTLTISSLQPEDFATYYCQQLNSYPLFTFGPGTKVDIK
B10: antibody 421 (antibody, V domains shown)
VH: QVQLVESGGGVVQPGRSLRLSCAASGFTFSTYAMHWVRQAPGKGLEWVAVISYDGSNKYYADSVKGRFTISRDNSKNTLYLQMNSLRAEDTAVYYCARGYGSGSYYPLYLYWGQGTLVTVSS
VL: not shown
B11: antibody 333 (antibody, V domains shown)
VH: QVHLVESGGGVVLPGRSLRLSCSASQFIFSNYDMHWVRQSPGMGLEWVAGISSDGSDKYYIDSVRGRFTISRDNAKNTLFLQMNSLTTEDTAVYSCAKGGGKFGQYWGRGTLVTVSS
VL: AIQMTQSPSSLSASVGDRVTITCRASQVIRNDLAWFQQKPGEAPNLLVYSASNLQSGVPSRFSGSGSGTDFTLTISSLQPEDFATYYCLQDYSYPYTFGQGTKLDMK
B12: antibody 328 (antibody, V domains shown)
VH: QVQLQESGPGLVKPSGTLSLTCAVSGGSISSSNWWSWVRQPPGKGLEWIGEIYHSGSTNYNPSLKSRVTISVDNSKNQFSLKLSSVTAADTAVYYCARESVAAAGISYYYYGMDVWGQGTTVTVSS
VL: DIQMTQSPSSLSASVGDRVTITCRASQGIRNDLGWYQQKPGKAPKRLIYAASSLQSGVPSRFSGSGSGTEFTLTVSGLQPEDFATYYCLQYNSSPLTFGGGTKVEIK
B13: antibody 332 (antibody, V domains shown)
VH: QVTLRESGPALVKPTQTLTLTCTFSGFSLSTSGMCVSWIRQPPGKALEWLALIDWDDDKYYSTSLKTRLTISKDTSKNQVVLTMTNMDPVDTATYYCARIHDDILTGYHYVDYWGQGTLVTVSS
VL: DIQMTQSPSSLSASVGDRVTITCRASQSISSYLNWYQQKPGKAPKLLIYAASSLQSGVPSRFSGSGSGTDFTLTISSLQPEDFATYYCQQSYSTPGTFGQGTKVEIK
B14: antibody 570 (antibody, V domains shown)
VH: QVQLQESGPGLVKPSQTLSLTCTVSGGSISSGSYYWSWIRQPAGKGLEWIGRIYTSGSTNYNPSLKSRVTISVDTSKNQFSLKLSSVTAADTAVYYCAREGQWLYRFDYWGQGTLVTVSS
VL: not shown
B15: antibody 574 (antibody, V domains shown)
VH: QVQLVESGGGVVQPGRSLRLSCAASGFTFSSYAMHWVRQAPGKGLEWVAVISYDGSNKYYADSVKGRFTISRDNSKNTLYLQMNSLRAEDTAVYYCARTDRYYGSGAHFDYWGQGTLVTVSS
VL: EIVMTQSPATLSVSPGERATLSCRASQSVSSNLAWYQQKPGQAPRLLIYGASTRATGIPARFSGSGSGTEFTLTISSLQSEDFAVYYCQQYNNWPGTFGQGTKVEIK
B16: antibody 419 (antibody, V domains shown)
VH: QVQLVQSGAEVKKPGASVKVSCKASGYTFTSYYMHWVRQAPGQGLEWMGIINPSGGSTSYAQKFQGRVTMTRDTSTSTVYMELSSLRSEDTAVYYCARDWTQSSGYDYYYGLDVWGQGTTVTVSS
VL: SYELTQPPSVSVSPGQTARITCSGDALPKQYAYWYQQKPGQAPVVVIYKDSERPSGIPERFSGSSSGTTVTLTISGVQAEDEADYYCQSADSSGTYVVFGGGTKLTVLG
B17: antibody 445 (antibody, V domains shown)
VH: QVQLVQSGAEVKKPGASVKVSCKASGYTFTSYYMHWVRQAPGQGLEWMGIINPSGGSTSYAQKFQGRVTMTRDTSTSTVYMELSSLRSEDTAVYYCARDPTEVGATSEYYYYGMDVWGQGTTVTVSS
VL: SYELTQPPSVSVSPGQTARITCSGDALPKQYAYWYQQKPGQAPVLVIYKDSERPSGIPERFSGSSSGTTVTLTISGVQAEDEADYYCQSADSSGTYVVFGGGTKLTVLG
B18: antibody 408 (antibody, V domains shown)
VH: QVQLVESGGGVVQPGRSLRLSCAASGFTFSSYAMHWVRQAPGKGLEWVAVISYDGSNKYYADSVKGRFTISRDNSRNTLYLQMNSLRAEDTAVYYCAKGADTPHYSGYDFLSVGYYYYGMDVWGQGTTVTVSS
VL: DIQMTQSPSSLSASVGDRVTITCRASQSISSYLNWYQQKPGKAPKLLIYAASSFQSGVPSRFSGSRSGTDFTLTISSLQPEDFATYYCQQSYSAPFTFGPGTKVDIKR
B19: antibody 562 (antibody, V domains shown)
VH: B4 VH with I34M, P99A, R100S, S103G, W105Q, A107P, I110P, M116L
VL: QSALTQPASVSGSPGQSITISCTGTSSDVGGYNYVSWYQQHPGKAPKLMIYDVSNRPSGVSNRFSGSKSGNTASLTISGLQAEDEADYYCSSYTSSSTLLYVFGTGTKVTVLG
B20: antibody 414 (antibody, V domains shown)
VH: QVQLVQSGAEVKKPGASVKVSCKASGYTFTSYYMHWVRQAPGQGLEWMGIINPSGGSTSYAQKFQGRVTMTRDTSTSTVYMELSSLRSEDTAVYYCARDPPGRDFWSGYYFGAPDYYYYYGMDVWGQGTTVTVSS
VL: DIQMTQSPSSLSASVGDRVTITCRASQGISNYLAWFQQKPGKAPKSLIYAASSLQSGVPSKFSGSGSGTDFTLTISSLQPEDFATYYCQQYNSYPYTFGQGTKLEIKR
B21: antibody 364 (antibody, V domains shown)
VH: EVQLVESGGGLVQPGRSLRLSCTASGFTFGDYAMSWFRQAPGKGLEWVGFIRSKAYGGTTEYAASVKGRFTISRDDSKSIAYLQMNSLKTEDTAVYYCTRFGIDYDYIWGSYRYTTLFDYWGQGTLVTVSS
VL: not shown
B22: antibody 462 (antibody, V domains shown)
VH: QVQLVESGGGVVQPGRSLRLSCAASGFTFSSYGMHWVRQAPGKGLEWVAVIWYDGNNKYYADSVKGRFTISRDNSKNTLYLQMNSLRAEDTAVYYCAKDPTWFGELPSYYYYGMDVWGQGTTVTVSS
VL: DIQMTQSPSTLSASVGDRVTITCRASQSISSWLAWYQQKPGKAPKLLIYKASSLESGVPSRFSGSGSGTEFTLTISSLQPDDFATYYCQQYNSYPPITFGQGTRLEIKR

molecular target: SARS-CoV-2 spike (S) protein, full length, wild type (SARS-CoV-2, UniProt P0DTC2 14-1208); assay: not given

B1 was tested, and the “median fluorescence fold over isotype” value was 630 fold over isotype.

molecular target: SARS-CoV-2 full length spike protein, wild type, expressed on the surface of transiently transfected CHO cells (SARS-CoV-2, UniProt P0DTC2 14-1273); assay: not given

In order of falling “median fluorescence fold over isotype control” value:
1. B5  19.6 fold over isotype
2. B2  14.6 fold over isotype
3. B7  13.8 fold over isotype
4. B9  10.7 fold over isotype
5. B4  10.5 fold over isotype
6. B8  9.7 fold over isotype
7. B10  9.23 fold over isotype
8. B6  7.8 fold over isotype
9. B3  1.99 fold over isotype

molecular target: T1, SARS-CoV-2 full length spike protein (wild type) (SARS-CoV-2, UniProt P0DTC2 14-1208); assay: multiplexed bead assay, flow cytometry; column D
T1 construct: also called SARS-CoV-2 spike; S protein

B11: no binding.
B12: no binding.
B13: no binding.

molecular target: SARS-CoV-2 spike protein (SARS-CoV-2, UniProt P0DTC2 14-1208); assay: HT-SPR, Carterra LSA; mAb coupled to chip, antigen injected; 1:1 fit

In order of falling Kd:
1. B15  2.28 nM
2. B14  0.0454 nM

In order of falling koff:
1. B15  0.0003 s⁻¹
2. B14  1e-05 s⁻¹

In order of falling kon:
1. B14  220000 M⁻¹ s⁻¹
2. B15  132000 M⁻¹ s⁻¹

molecular target: NCP-CoV (2019-nCoV) Spike Protein (S1 Subunit, His Tag) (SARS-CoV-2, UniProt P0DTC2 16-685); assay: HT-SPR (Carterra LSA), mAb on chip, S1 subunit (His tag) in solution, 25 C

In order of falling Kd:
1. B17  613 nM
2. B16  235 nM
3. B18  171 nM

molecular target: T2, SARS-CoV-2 spike protein (nCoV-S Spike Protein Trimer, NIH) (SARS-CoV-2, UniProt P0DTC2 14-1208); assay: HT-SPR (Carterra LSA), mAb on chip, SARS-CoV-2 spike protein titrated, 25 C
T2 construct: also called S protein

In order of falling Kd:
1. B20  7.93 nM
2. B21  7.61 nM
3. B22  7.58 nM
4. B19  0.173 nM

molecular target: T2, SARS-CoV-2 spike protein (nCoV-S Spike …); assay: HT-SPR (Carterra LSA), mAb on chip, SARS-CoV-2 spike protein titrated, 37 C

In order of falling Kd:
1. B20  5.21 nM
2. B22  4.62 nM
3. B19  0.138 nM
4. B21  0.0233 nM
